Patent US8318489B2, “Prostacyclin directed differentiation of cardiomyocytes from human embryonic stem cells” (priority 2005, dated 2012)

Tested on: hES cells
Test: Embryoid body differentiation of hES cells, visual scoring of beating EBs
Assay type: cell-based, human
Details: growth factor 10 ng/ml added to END2-CM, day 12, compared to END2-CM alone
Procedure: This procedure describes the formation of embryoid bodies (EB) from collagenase-derived hES cell cultures. After formation the EBs were then exposed to END2 conditioned medium (CM).
Enzymatically passaged hES cells grown on feeder cells were washed once with PBS^+ and treated with Collagenase IV (1 mg/ml) for 3-4 min at 37° C. The Collagenase IV solution was replaced by DMEM and the cells were mechanically dissociated with a pipette tip. Cells were then harvested using a cell scraper and the cell suspension was transferred to a 50 ml tube (Falcon). Cell clumps were collected by gravity and the supernatant was aspirated. Cells were resuspended in fresh DMEM medium aiming to uniformly disperse the cell clumps in the suspension. An equal volume of the cell suspension was then transferred to ultra low attachment plates (Costar). […]
In suspension culture, EBs are formed in ultra low attachment plates in SF medium over night. […] Usually, cells were cultured over a period of 12-13 days before the visual analysis of the proportion of beating EBs under a microscope was performed followed by cell collection for additional readouts. Multiple beating areas on single EBs were not counted separately. Values are expressed as a percentage of contracting EBs compared to […] in a single well of a 6-well tray. […] An average value per well was calculated and presented.

B1: Bmp6: recombinant human Bmp6 (R&D) (protein, UniProt P22004 375-513, looked up)
Bone morphogenetic protein 6: SASSRRRQQSRNRSTQSQDVARVSSASDYNSSELKTACRKHELYVSFQDLGWQDWIIAPKGYAANYCDGECSFPLNAHMNATNHAIVQTLVHLMNPEYVPKPCCAPTKLNAISVLYFDDNSNVILKKYRNMVVRACGCH
  CM induction activity (number of beating areas): enhance CM induction activity
